Substrate: O=P(O)(O)O[C@H]1O[C@H](CO)[C@@H](O)[C@H](O)[C@H]1O
Assay: initial rates from phosphate release, Michaelis-Menten fit
Type: biochemical, [Clostridium] cellulosi
Conditions: 100 mM cellobiose (saturating), 50 mM MES pH 7.0, 45 °C, synthesis direction

B1: CcCdP (cellodextrin phosphorylase from Clostridium cellulosi) ([Clostridium] cellulosi) (protein)
chain: MITKVTPRSCKLTPFEILKQKFGSIIAMSGCADAIYSDSSCKNVIGITGLPIKAPVIQVLLENSKLAAFLNEYVQNKSVCLALEGMRYCLVFEDGQKVKLPQELDDIIQSTVSDVKNWAGTLTENGEHVIDLKKPSPGPHFYVNLLIGNRLGFNRTLQTTPKSVVDRFGRGSFRSHAATQVLATRYDMRQEENGFPANRQFYLYENGKQIFYSGSVDDDNILEAKCIHSCNRTVIKYKTACKLEITRTIFLCPQKKGLPLATEIQIINIKNNSERKRNLSITYTGMFGTAATHAIFEDVTYTNVIMQSAALYNDNGEFIGITPDYYRKKYNEDTRFVTMFVRKDGKRIFPKSFCTDYNDFVGNGTLEHPAGGEHLNNKLNRKGPGFFALGTPFTIMPGQDIEIDTFTGMSSSKDNPNYDDTTMPKELEALLRYFEASDSVQSALREVIDFQEKYCKYIEFKTEDKMFNAGFNKNLAFQILYQTFMSRSFCQTQKGYREIGFREIQDLYASMYYFINLGYQDFVKNLLFEWTSNVYKMGYANHNFYWVGKQPGLYSDDSLWLLQAYYRYIIYTKDTSILNEEVPVADGNNEKRAVRDTLKAIIQYSAFISVGNHGLPLLDLADWNDCLKIDNDYVDGAQKEKLYYKQLKETGGKYGDRFMSDYSESVMNAFLLKVAVDDLAEIAELDKDAELEQSMRKISSALSEKIQKYAWKGNFFARVLLNRYKDGSFTYIGAKGDKLSADPNIDGTYFLNSFSWAILSGVATDEQIGIMVDTLKKYMLTPYGIRLTTPADLNKLANDTATDHYFYGDRENGAVFKHASMMATAALAKAAKSVKDKALAKEMARLAYYMIDLVLPYKNLEDPFKLAGNPRICTQYINADSGENIGPLLSGTATWLNLTITSLAGIEYVKDGIMFSPVLREDETRLEYSLKAPGCSYNITITKPRGFARLIDSAYDLRIDGKKTDNCIIPMFTDGKEHSVTLEFK
notes: N-terminally His-tagged, recombinant, purified
- Km: 470 ± 240 µM

Source: PMC8194188, “Kinetic modeling of phosphorylase-catalyzed iterative β-1,4-glycosylation for degree of polymerization-controlled synthesis of soluble cello-oligosaccharides” (Biotechnology for Biofuels, 2021)
